Values after ≈ are worked out from the molar mass of the structure shown. Read-outs that look alike come from different tables or passages of the source.

Assay [1] relates to P. aeruginosa strains. The assay is described as follows: MIC and MBC, modified CLSI broth microdilution, CAA medium. The format is cell-based. Conditions: strain 453, FpvA type I. As for the experimental part:
The MIC and MBC values were calculated using a modified version of the broth microdilution assay as previously described by the Clinical and Laboratory Standards Institute (CLSI) (45). The specific modifications were to the bacterial concentration and growth medium used. […] CAA medium was used for Gram-negative bacteria to simulate low iron conditions. Alternatively, MHB was used for Gram-positive bacteria due to their inability to grow in CAA medium. Bacterial growth was assessed by measuring the OD600 nm using a SpectraMax M5 microplate reader (Molecular Devices). The MIC was defined as the lowest antimicrobial concentration that inhibits bacterial growth. To determine the MBC, the contents from each well originating from the MIC microtiter plate was plated on CAA agar to quantitate bacterial viability. The MBC was defined as the lowest antimicrobial concentration required to kill ≥99.9% of the initial bacterial inoculum. Growth and sterility controls were included.

Assay [2] addresses FpvAII receptor (Pseudomonas aeruginosa). The assay is described as follows: cell-based or functional assay.
Assay [3] concerns the target FpvAIII receptor (Pseudomonas aeruginosa). Kind of assay: cell-based or functional assay.
In assay [4] the target is ferripyoverdine A type I (FpvAI) receptor (Pseudomonas aeruginosa) (UniProt P48632). The assay is described as follows: cell-based or functional assay.
Assay [5] relates to pseudomonal PG (autoclaved P. aeruginosa). The assay is described as follows: Muralytic plate lysis assay on autoclaved Pseudomonas. The format is biochemical. As to conditions: 25 pmol spotted.
The next assay concerns P. aeruginosa strain 453. Kind of assay: Cell viability assays with 0.5 μM antimicrobial.
Assay [6] concerns P. aeruginosa strains. Kind of assay: MIC, CLSI broth microdilution in CAA medium with EDDHA.
Protocol: The FpvA receptor type for all P. aeruginosa strains used was determined using multiplex PCR, as previously described (67). […] CAA medium consisting of 0.5 mg/ml EDDHA was used instead of MHB. All P. aeruginosa strains were initially inoculated in CAA medium and grown overnight at 37° C. with aeration. The bacteria were then pelleted, washed and resuspended in CAA medium with EDDHA. Using a 96-well U-bottom microtiter plate, P. aeruginosa at a final concentration of 5×10^5 CFU/ml were incubated statically at 37° C. with 0.002-256 μg/ml lysocin in CAA medium with EDDHA for a total of 48 h. Growth (bacteria incubated in growth medium absent lysocin) and sterility controls (growth medium only) were included for each dataset. At the culmination of the experiment, each plate was visually inspected for bacterial growth. All samples were assayed in triplicate. The MIC was defined as the lowest concentration of lysocin that inhibited observable bacterial growth.
The mark [7] stands for this setting: Pseudomonas aeruginosa, read-out: MBC.
[8] abbreviates: Pseudomonas aeruginosa, read-out: MIC.

Protocol for P. aeruginosa strain 453: P. aeruginosa strain 453 were grown under iron-depleted conditions (see Bacterial Strains and Growth Conditions). The bacteria were harvested, washed and resuspended in fresh CAA medium with 0.5 mg/ml EDDHA. Using a 96-well flat-bottomed microtiter plate, the bacteria at ˜10^6 CFU/ml were incubated statically at 37° C. with either growth medium only (untreated control) or 0.5 μM purified antimicrobial. A 2 h incubation was used for the single time point experiments, whereas a 4 or 6 h incubation was used for the multiple time point assays. At various time points, an aliquot was removed from each sample, serially diluted and plated on CAA agar. After incubating the agar plates for up to 48 h at 37° C., colonies were counted in order to quantitate the CFU/ml concentration of surviving bacterial cells. Modifications were introduced to the aforementioned cell viability assay protocol for the experiment using P. aeruginosa grown in the presence of varying free iron concentrations. First, P. aeruginosa strain 453 were grown using iron-depleted or iron-rich conditions (CAA medium supplemented with 100 μM FeSO4) at 37° C. with aeration for a total of 16-18 h and subsequently assayed for lysocin sensitivity in PBS, pH 7.4. For the experiment analyzing lysocin activity in the presence of lung surfactant or serum, P. aeruginosa were incubated with or without lysocin in beractant ([sequence]; Abbvie) or HuS diluted 1:1 with 20 mM sodium phosphate, pH 7.0.

On to colistin [reference compound], for which, in the assay with P. aeruginosa strains [1], the MBC came out at 0.5 µg/mL and the MIC is 0.5 µg/mL.

For `C[C@@H](O)[C@H]1C(=O)N2C(C(=O)O)=C(S[C@@H]3CN[C@H](C(=O)N(C)C)C3)[C@H](C)[C@H]12` [Meropenem, meropenem, reference compound], the MBC with P. aeruginosa strains [1] (setting [7]) came to 8 µg/mL (≈ 20.9 µM). For the same compound, in the assay on P. aeruginosa strains [1] (setting [8]), the minimal inhibitory concentration (MIC) worked out at 8 µg/mL (≈ 20.9 µM).

In assay [2], PyS2-GN4 lysocin registered an MIC, P. aeruginosa strain 445 (FpvA type II) of over 256 µg/mL; an MIC, P. aeruginosa strain 446 (FpvA type II) of over 256 µg/mL; an MIC, P. aeruginosa strain 448 (FpvA type II) of over 256 µg/mL; an MIC, P. aeruginosa strain 449 (FpvA type II) of over 256 µg/mL. In addition, in assay [2], the MIC, P. aeruginosa strain 451 (FpvA type II) is over 256 µg/mL. Moreover, in assay [3], the MIC, P. aeruginosa strain 443 (FpvA type III) is over 256 µg/mL and the MIC, P. aeruginosa strain 450 (FpvA type III) was over 256 µg/mL. In assay [4], this compound registered an MBC, P. aeruginosa strain 453 (FpvA type I) of 0.25 µg/mL; an MIC, P. aeruginosa strain 452 (FpvA type I) of 4 µg/mL; an MIC, P. aeruginosa strain 453 (FpvA type I) of 0.25 µg/mL; an MIC, P. aeruginosa strain MDR-M-3 (FpvA type I) of 2 µg/mL. This compound also showed an MIC, P. aeruginosa strain PAO1 (FpvA type I) in assay [4] of 2 µg/mL.

In assay [2], PyS2-I-GN4 lysocin came in with an MIC, P. aeruginosa strain 445 (FpvAII) of over 256 µg/mL; an MIC, P. aeruginosa strain 448 (FpvAII) of over 256 µg/mL; an MIC, P. aeruginosa strain 451 (FpvAII) of over 256 µg/mL; an MIC, P. aeruginosa strain AR468 (FpvAII) of over 256 µg/mL. In addition, in assay [3], the MIC, P. aeruginosa strain 443 (FpvAIII) is over 256 µg/mL; the MIC, P. aeruginosa strain 450 (FpvAIII) was over 256 µg/mL; the MIC, P. aeruginosa strain AR471 (FpvAIII) was over 256 µg/mL. Further, in assay [4], the MIC, P. aeruginosa strain 447 (FpvAI) was 4 µg/mL; the MIC, P. aeruginosa strain 453 (FpvAI) turned out to be 0.25 µg/mL; the MIC, P. aeruginosa strain AR465 (FpvAI) stood at 4 µg/mL; the MIC, P. aeruginosa strain AR469 (FpvAI) came out at 8 µg/mL. In assay [4], the MIC, P. aeruginosa strain AR470 (FpvAI) came to 8 µg/mL; the MIC, P. aeruginosa strain AR474 (FpvAI) was determined as 4 µg/mL; the MIC, P. aeruginosa strain PAO1 (FpvAI) was determined as 4 µg/mL.

In assay [2], PyS2-I-GN3 lysocin displayed an MIC, P. aeruginosa strain 445 (FpvAII) of over 256 µg/mL; an MIC, P. aeruginosa strain 448 (FpvAII) of over 256 µg/mL; an MIC, P. aeruginosa strain 451 (FpvAII) of over 256 µg/mL; an MIC, P. aeruginosa strain AR468 (FpvAII) of over 256 µg/mL. For the same compound, in assay [3], the MIC, P. aeruginosa strain 443 (FpvAIII) is over 256 µg/mL; the MIC, P. aeruginosa strain 450 (FpvAIII) is over 256 µg/mL; the MIC, P. aeruginosa strain AR471 (FpvAIII) is over 256 µg/mL. Also, in assay [4], the MIC, P. aeruginosa strain 447 (FpvAI) was 8 µg/mL; the MIC, P. aeruginosa strain 453 (FpvAI) is 4 µg/mL; the MIC, P. aeruginosa strain AR465 (FpvAI) turned out to be 4 µg/mL; the MIC, P. aeruginosa strain AR469 (FpvAI) worked out at 8 µg/mL. In assay [4], the MIC, P. aeruginosa strain AR470 (FpvAI) was 4 µg/mL; the MIC, P. aeruginosa strain AR474 (FpvAI) came out at 4 µg/mL; the MIC, P. aeruginosa strain PAO1 (FpvAI) came out at 8 µg/mL.

For the compound “CEWL: Chicken egg white lysozyme, positive control for muralytic activity [reference compound]”, the “muralytic activity (clearing zones) on autoclaved P. aeruginosa” value in assay [5] is “Clearing zones”.

Regarding `NC[C@H]1O[C@H](O[C@H]2[C@H](O)[C@@H](O[C@H]3O[C@H](CO)[C@@H](O)[C@H](N)[C@H]3O)[C@H](N)C[C@@H]2N)[C@H](N)C[C@@H]1O` [Tobramycin, tobramycin, reference compound], the MBC in the assay with P. aeruginosa strains [1] (setting [7]) worked out at 0.25 µg/mL (≈ 0.535 µM). Further, the minimum inhibitory concentration (MIC) in the assay with P. aeruginosa strains [1] (setting [8]) is 0.125 µg/mL (≈ 0.267 µM).

Take “PyS2-I-PlyPa03: PyS2 aa 1-209, GSx3 linker, P. aeruginosa lysin PlyPa03 (aa 2-144)”: the “muralytic activity (clearing zones) on autoclaved P. aeruginosa” value in assay [5] was “degraded pseudomonal PG”. Also, the “decrease in viability of Pseudomonas” value with P. aeruginosa strain 453 (1 h, iron-chelated CAA medium) stood at 3.6 log10. Also, the “killing of Pseudomonas” value with P. aeruginosa strain 453 (2 h, 50% HuS) was 4.5 log10. In addition, the “killing of P. aeruginosa” value in the assay on P. aeruginosa strain 453 (2 h, 50% beractant (SURVANTA)) is 3.6 log10; with P. aeruginosa strain 453 (4 h, iron-chelated CAA medium) it was 6.2 log10. In the assay on P. aeruginosa strains [6] (P. aeruginosa strains expressing FpvAII and FpvAIII), the activity towards strains entry was “ineffective”. Also, the MIC against P. aeruginosa strains [6] (strain 443, FpvAIII) is over 256 µg/mL; in the assay with P. aeruginosa strains [6] (strain 445, FpvAII) it was over 256 µg/mL; against P. aeruginosa strains [6] (strain 447, FpvAI), 4 µg/mL; against P. aeruginosa strains [6] (strain 448, FpvAII), over 256 µg/mL; against P. aeruginosa strains [6] (strain 450, FpvAIII), over 256 µg/mL; against P. aeruginosa strains [6] (strain 451, FpvAII) it was over 256 µg/mL. The MIC was 0.25 µg/mL against P. aeruginosa strains [6] (strain 453, FpvAI); 2 µg/mL against P. aeruginosa strains [6] (strain AR465, FpvAI); over 256 µg/mL against P. aeruginosa strains [6] (strain AR468, FpvAII); 4 µg/mL against P. aeruginosa strains [6] (strain AR469, FpvAI); 8 µg/mL in the assay on P. aeruginosa strains [6] (strain AR470, FpvAI); over 256 µg/mL in the assay with P. aeruginosa strains [6] (strain AR471, FpvAIII). Moreover, the MIC in the assay on P. aeruginosa strains [6] (strain AR474, FpvAI) was determined as 4 µg/mL; with P. aeruginosa strains [6] (strain PAO1, FpvAI), 4 µg/mL.

Regarding PyS2-I-PlyPa03 lysocin, in assay [2], the MIC, P. aeruginosa strain 445 (FpvAII) is over 256 µg/mL; the MIC, P. aeruginosa strain 448 (FpvAII) is over 256 µg/mL; the MIC, P. aeruginosa strain 451 (FpvAII) is over 256 µg/mL; the MIC, P. aeruginosa strain AR468 (FpvAII) is over 256 µg/mL. In assay [3], this compound had an MIC, P. aeruginosa strain 443 (FpvAIII) of over 256 µg/mL; an MIC, P. aeruginosa strain 450 (FpvAIII) of over 256 µg/mL; an MIC, P. aeruginosa strain AR471 (FpvAIII) of over 256 µg/mL. Besides, in assay [4], the MIC, P. aeruginosa strain 447 (FpvAI) was found to be 4 µg/mL; the MIC, P. aeruginosa strain 453 (FpvAI) came out at 0.25 µg/mL; the MIC, P. aeruginosa strain AR465 (FpvAI) was 2 µg/mL; the MIC, P. aeruginosa strain AR469 (FpvAI) turned out to be 4 µg/mL. In assay [4], the MIC, P. aeruginosa strain AR470 (FpvAI) was 8 µg/mL; the MIC, P. aeruginosa strain AR474 (FpvAI) came out at 4 µg/mL; the MIC, P. aeruginosa strain PAO1 (FpvAI) was 4 µg/mL.

(Values after US20220024992A1, “COMPOSITIONS AND METHODS COMPRISING LYSOCINS AS BIOENGINEERED ANTIMICROBIALS FOR USE IN TARGETING GRAM-NEGATIVE BACTERIA” (The Rockefeller University, priority 2018, published 2022).)
